In patent US10905770B2, “Topical delivery of therapeutic agents using cell-penetrating peptides for the treatment of age-related macular degeneration and other eye diseases” (priority 2017, dated 2021):
“Also recorded” adds a separate entry of the source.

Experiments:
[1] = Description: (§1) Lutein was dissolved in DMSO (10 mg/mL) and titrated into water. […] As a proxy for topical delivery into the eye by eye drop, 50 μL of lutein plus hexa-arginine (SEQ ID NO: 258) or lutein alone was applied to one side of the outer shell membrane of a chicken egg, and the material that crossed the membrane in water was collected after 2 minutes. The level of lutein was measured by absorbance. The experiment was conducted three times (n=3).
Zeaxanthin was dissolved in DMF (10 mg/mL) and titrated into water. […] As a proxy for topical delivery into the eye by eye drop, 50 μL of zeaxanthin plus hexa-arginine (SEQ ID NO: 258) or zeaxanthin alone was applied to one side of the outer shell membrane of a chicken egg, and the material that crossed the membrane in water was collected after 2 minutes. The level of zeaxanthin was measured by absorbance. The experiment was conducted three times (n=3).
as §1, with “into water, zeaxanthin was dissolved in DMF (10 mg/mL) and titrated into water, and then lutein and zeaxanthin were mixed in a 1:1 ratio.” for “into water.”, “lutein and zeaxanthin” for “lutein”, “NO: 258),” for “NO: 258)”, “lutein and zeaxanthin without CPP,” for “lutein alone”
Dexamethasone was dissolved in DMSO and titrated into water. […] As a proxy for topical delivery into the eye by eye drop, 50 μL of dexamethasone plus hexa-arginine (SEQ ID NO: 258) or dexamethasone alone was applied to one side of the outer shell membrane of a chicken egg, and the material that crossed the membrane in water was collected after 2 minutes. The presence of dexamethasone was detected by electrospray mass spectroscopy.
Tacrolimus was dissolved in DMSO and titrated into water. […] As a proxy for topical delivery into the eye by eye drop, 50 μL of tacrolimus plus hexa-arginine (SEQ ID NO: 258) or tacrolimus alone was applied to one side of the outer shell membrane of a chicken egg, and the material that crossed the membrane in water was collected after 2 minutes. The presence of tacrolimus was detected by electrospray mass spectroscopy.
Adalimumab was fluorescently tagged and purified. […] As a proxy for topical delivery into the eye by eye drop, 50 μL of adalimumab plus hexa-arginine (SEQ ID NO: 258) or adalimumab alone was applied to one side of the outer shell membrane of a chicken egg, and the material that crossed the membrane in PBS was collected after 2 minutes. The level of adalimumab was measured by fluorescence. The experiment was conducted three times (n=3).
As a proxy for topical delivery into the eye by eye drop, 50 μL of glucose plus hexa-arginine (SEQ ID NO: 258) or glucose alone was applied to one side of the outer shell membrane of a chicken egg, and the material that crossed the membrane in water was collected after 2 minutes. The presence of glucose was detected by electrospray mass spectroscopy.
As a proxy for topical delivery into the eye by eye drop, 50 μL of BDNF plus hexa-arginine (SEQ ID NO: 258) or BDNF alone was applied to one side of the outer shell membrane of a chicken egg, and the material that crossed the membrane in PBS was collected after 2 minutes. The level of BDNF was measured by ELISA. The experiment was conducted three times (n=3).
As a proxy for topical delivery into the eye by eye drop, 50 μL of GDNF plus hexa-arginine (SEQ ID NO: 258) or GDNF alone was applied to one side of the outer shell membrane of a chicken egg, and the material that crossed the membrane in PBS was collected after 2 minutes. The level of GDNF was measured by ELISA.

rat eye in vivo = assay: CPP-assisted delivery into rat eye in vivo
Description: An eye drop of 50 μL of bevacizumab plus hexa-arginine (SEQ ID NO: 258) was applied topically to the front of one of the eyes of a live rat, and then the rat was sacrificed 60 minutes after topical application.

geographic atrophy (GA) = details: vs placebo, cited from earlier work

**Q.** Which “amount that crossed the membrane with hexa-arginine compared with without” value [1] does the source give for adalimumab here?
**A.** markedly greater

**Q.** And the “fluorescence of material that crossed the egg shell membrane” value [1]?
**A.** 1359±3

**Q.** With `CC1=C(/C=C/C(C)=C/C=C/C(C)=C/C=C/C=C(C)/C=C/C=C(C)/C=C/C2=C(C)C[C@@H](O)CC2(C)C)C(C)(C)C[C@H](O)C1` [zeaxanthin] as the molecule, how does the “crossing of the egg shell membrane” value [1] read?
**A.** a very small amount

**Q.** Which “crossing of the egg shell membrane” value [1] does the source give for `CC1=C[C@H](O)CC(C)(C)[C@H]1/C=C/C(C)=C/C=C/C(C)=C/C=C/C=C(C)/C=C/C=C(C)/C=C/C1=C(C)C[C@@H](O)CC1(C)C` [lutein] here?
**A.** did not cross

**Q.** For `C[C@@H]1C[C@H]2[C@@H]3CCC4=CC(=O)C=C[C@]4(C)[C@@]3(F)[C@@H](O)C[C@]2(C)[C@@]1(O)C(=O)CO` [dexamethasone, reference compound], which “crossing of the egg shell membrane (electrospray mass spectroscopy)” value [1] is on record?
**A.** did not cross

**Q.** What does the source list for bevacizumab: anti-VEGF antibody?
**A.** delivery into the posterior segment (the vitreous and the retina) of the treated eye (rat eye in vivo; 50 μL eye drop, bevacizumab 25 mg/mL plus hexa-arginine 5 mg/mL, 60 minutes, human IgG ELISA): entered; also recorded: delivered; level in the bloodstream (rat eye in vivo; 60 minutes after topical application): not detected; level in the fellow untreated eye (rat eye in vivo; 60 minutes after topical application to the other eye, human IgG ELISA): not detected

**Q.** Which “reduction in the rate of GA enlargement, and hence the area of GA, in the injected eye” value (geographic atrophy (GA); monthly intravitreal injections of 10 mg for 18 months, fundus autofluorescence) does the source give for “lampalizumab: antigen-binding fragment (Fab) of a humanized monoclonal antibody targeting CFD” here?
**A.** about 20%

**Q.** What about the “reduction in the GA growth rate, and hence the area of GA” value (geographic atrophy (GA); subgroup positive for CFI mutations, monthly intravitreal 10 mg for 18 months) of the same molecule?
**A.** about 44%

**Q.** For `C=CC[C@@H]1/C=C(\C)C[C@H](C)C[C@H](OC)[C@H]2O[C@@](O)(C(=O)C(=O)N3CCCC[C@H]3C(=O)O[C@H](/C(C)=C/[C@@H]3CC[C@@H](O)[C@H](OC)C3)[C@H](C)[C@@H](O)CC1=O)[C@H](C)C[C@@H]2OC` [tacrolimus, reference compound], which “crossing of the egg shell membrane (electrospray mass spectroscopy)” value [1] is on record?
**A.** did not cross

B1: GDNF: glial cell-derived neurotrophic factor (protein, UniProt P39905 78-211, looked up)
Glial cell line-derived …: SPDKQMAVLPRRERNRQAAAANPENSRGKGRRGQRGKNRGCVLTAIHLNVTDLGLGYETKEELIFRYCSGSCDAAETTYDKILKNLSRNRRLVSDKVGQACCRPIAFDDDLSFLDDNLVYHILRKHSAKRCGCI
**Q.** With B1 as the molecule, how does the “crossing of the egg shell membrane” value [1] read?
**A.** did not cross

B2: BDNF: brain-derived neurotrophic factor (protein, UniProt P23560 19-247, looked up)
Neurotrophic factor BDNF …: APMKEANIRGQGGLAYPGVRTHGTLESVNGPKAGSRGLTSLADTFEHVIEELLDEDQKVRPNEENNKDADLYTSRVMLSSQVPLEPPLLFLLEEYKNYLDAANMSMRVRRHSDPARRGELSVCDSISEWVTAADKKTAVDMSGGTVTVLEKVPVSKGQLKQYFYETKCNPMGYTKEGCRGIDKRHWNSQCRTTQSYVRALTMDSKKRIGWRFIRIDTSCVCTLTIKRGR
**Q.** Which “crossing of the egg shell membrane” value [1] does the source give for B2 here?
**A.** did not cross
